Experimental data from US20250059295A1 (AstraZeneca / MedImmune, published 2025).

Key:
[1] = target: T1, CD8 (cluster of differentiation 8), CD8ab (UniProt P01732 22-235; P10966 22-210); experiment: flow cytometry on cells carrying CD8
T1 construct: whole, on cells; The method names Jurkat (TCR neg) CD8ab+ cells
Experimental: (§1) Cell based binding assays were performed on BD FACSymphony™ A5 Cell Analyzer. To determine binding affinity of AZD6621, C4-2 cells and Jurkat (TCR neg) CD8ab+ cells expressing Steap2 and CD8ab respectively were used for the assay. The cells were harvested and resuspended in FACS buffer (DPBS-1X, 2% FBS, & 5 mM EDTA) at 2×10e6 cells/ml. Cells were seeded in U-bottom Tissue Culture treated 96 Well-plate at 50 ul/well making the cell number at 100,000 per well. The test articles (AZD6621) titration were prepared (2×) using FACS buffer with the starting working concentration of 600 nM and with 1:4 dilution up to 8 titration points. Cells (50 ul/well) were then combined with primary antibody (50 ul/well) titration and incubated at 4° C. for 1 hour. After incubation, the cells were washed 2× using 200 ul of FACS buffer and resuspended with freshly prepared FACS buffer (100 ul/well) containing secondary antibody (Anti-H+L: Goat anti-Human IgG (H+L) Cross-Adsorbed Secondary Antibody, Alexa Fluor 647 (Invitrogen #A-21445) at 1:400 dilution) & DAPI (Live/Dead stain). The secondary antibody was incubated at 4° C. for 1 hour. […] The data was analyzed with FlowJo v 10.6.1. The target receptor binding was determined using geometric mean calculation on FlowJo software detecting the positive APC signal in each well. […]

[2] = target: T2, six transmembrane epithelial antigen of prostate-2 (STEAP2) (human, UniProt Q8NFT2 1-490); experiment: flow cytometry on C4-2 cells expressing STEAP2
T2 construct: whole, on cells
T2 sequence (looked up): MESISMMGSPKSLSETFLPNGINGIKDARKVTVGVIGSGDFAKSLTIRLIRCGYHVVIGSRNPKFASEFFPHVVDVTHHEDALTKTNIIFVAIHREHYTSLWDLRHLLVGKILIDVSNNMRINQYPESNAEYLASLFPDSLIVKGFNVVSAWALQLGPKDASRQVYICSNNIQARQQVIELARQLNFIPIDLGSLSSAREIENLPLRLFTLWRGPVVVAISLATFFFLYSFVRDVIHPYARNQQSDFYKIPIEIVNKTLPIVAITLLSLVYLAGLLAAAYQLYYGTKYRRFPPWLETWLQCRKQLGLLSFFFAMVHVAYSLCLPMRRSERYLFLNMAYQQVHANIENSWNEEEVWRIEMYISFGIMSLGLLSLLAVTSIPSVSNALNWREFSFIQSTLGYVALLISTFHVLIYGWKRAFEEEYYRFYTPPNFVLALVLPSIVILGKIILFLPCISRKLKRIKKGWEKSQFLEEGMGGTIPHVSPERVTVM
Experimental: as §1

T1 sequence (P01732 22-235, chain 1 of 2): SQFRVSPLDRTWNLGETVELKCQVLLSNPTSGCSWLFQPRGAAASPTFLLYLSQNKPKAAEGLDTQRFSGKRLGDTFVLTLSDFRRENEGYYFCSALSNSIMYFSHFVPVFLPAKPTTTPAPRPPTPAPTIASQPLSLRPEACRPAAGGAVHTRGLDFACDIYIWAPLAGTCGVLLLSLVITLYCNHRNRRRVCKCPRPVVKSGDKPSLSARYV
T1 sequence (P10966 22-210, chain 2 of 2): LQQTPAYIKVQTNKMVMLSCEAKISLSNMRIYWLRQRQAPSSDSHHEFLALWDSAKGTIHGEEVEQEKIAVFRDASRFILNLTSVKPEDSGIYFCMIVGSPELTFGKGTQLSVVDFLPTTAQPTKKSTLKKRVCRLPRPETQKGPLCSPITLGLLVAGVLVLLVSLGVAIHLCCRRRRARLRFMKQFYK

B1: 40A3LO12-TED4-K17/E75 (other)
heavy 1: QVQLQQSGPGLVKPSQTLSLTCAISGDSVSRNSAVWNWIRQSPSRGLEWLGRTYYRSKWYNDYAVSVKSRITINPDTSKNQFSLQLNSVTPEDTAVYYCARGLRQNQFYYYMDVWGKGTTVTVSSASTKGPSVFPLAPSSKSTSGGTAALGCLVKDYFPEPVTVSWNSGALTSGVHTFPAVLQSSGLYSLKSVVTVPSSSLGTQTYICNVNHKPSNTKVDKRVEPKSCDGGGGSGGGGSEVQLVESGGALVKPGGSLRLSCAASGFTFTEAWMHWVRQAPGKQLEWVAQIKDRSQTYATYYAESVKGRFTISRDDSKNTLYLQMNSLKTEDTAVYYCRGVYYANAPFDYWGQGTLVTVSSASTKGPSVCPLAPSSKSTSGGTADLGCLVKDYFPEPVTVSWNSGALTSGVHTFPAVLQSSGLYSLSSVVTVPSSSLGTQTYICNVNHKPSNTKVDKRVEPKSVDKTHTCPPCPAPPVAGPSVFLFPPKPKDTLMISRTPEVTCVVVDVKHEDPEVKFNWYVDGVEVHNAKTKPREEQYNSTYRVVSVLTVLHQDWLNGKEYKCKVSNKALPAPIEKTISKAKGQPREPQVYTLPPCREEMTKNQVSLWCLVKGFYPSDIAVEWESNGQPENNYKTTPPVLDSDGSFFLYSKLTVDKSRWQQGNVFSCSVMHEALHNHYTQKSLSLSPGK
light 1: not shown
heavy 2: EVQLLESGGGLVQPGGSLRLSCAASGFTFDDYAIGWFRQAPGKEREGVSCIRVSDGSTYYADSVKGRFTISRDNSKNTLYLQMNSLRAEDTAVYYCAAGSLYTCVQSIVWPARPYYDMDYWGQGTLVTVSSGGGGSGGGGSQVQLQQSGPGLVKPSQTLSLTCAISGDSVSRNSAVWNWIRQSPSRGLEWLGRTYYRSKWYNDYAVSVKSRITINPDTSKNQFSLQLNSVTPEDTAVYYCARGLRQNQFYYYMDVWGKGTTVTVSSASTKGPSVFPLAPSSKSTSGGTAALGCLVKDYFPEPVTVSWNSGALTSGVHTFPAVLQSSGLYSLKSVVTVPSSSLGTQTYICNVNHKPSNTKVDKRVEPKSCDKTHTCPPCPAPPVAGPSVFLFPPKPKDTLMISRTPEVTCVVVDVKHEDPEVKFNWYVDGVEVHNAKTKPREEQYNSTYRVVSVLTVLHQDWLNGKEYKCKVSNKALPAPIEKTISKAKGQPREPQVCTLPPSREEMTKNQVSLSCAVKGFYPSDIAVEWESNGQPENNYKTTPPVLDSDGSFFLVSKLTVDKSRWQQGNVFSCSVMHEALHNHYTQKSLSLSPGK
light 2: DIVMTQSPLSLPVTPGEPASISCRSSQSLVHNTGNTYLSWYLQKPGQSPQSLIYKVSNRASGVPDRFSGSGSGTDFTLKISRVEAEDVGVYYCGQGTQAPFTFGSGTKVEIKGQPKAAPSVRLFPPCSEELQANKATLVCLISDFYPGAVTVAWKADSSPVKAGVETTTPSKQSNNKYAASSYLSLTPEQWKSHRSYSCQVTHEGSTVEKTVAPTEVS
notes: also called TED4 LO12
binding result [1]: binds
binding result [2]: binds
